Measurements: patent publication US20040009568

How the values were obtained:
[1] = target: dephosphorylated α-casein (UniProt P02662)
Sequence of dephosphorylated α-casein (P02662 16-214): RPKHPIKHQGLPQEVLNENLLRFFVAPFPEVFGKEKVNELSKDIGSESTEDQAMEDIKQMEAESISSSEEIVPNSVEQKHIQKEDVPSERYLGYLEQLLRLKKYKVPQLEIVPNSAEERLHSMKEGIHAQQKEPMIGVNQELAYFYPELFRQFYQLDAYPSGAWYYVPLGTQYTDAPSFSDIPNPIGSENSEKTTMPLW

Row | Substance | autophosphorylation rate | Km (steady-state, coupled enzymatic assay, 37 C) (poly(Glu4Tyr)) | kcat/Km (steady-state, coupled enzymatic assay, 37 C) (poly(Glu4Tyr)) | Km, Dephosphorylated α-casein (coupled, enzymatic format) [1]
1 | catalytic domain of the human hepatocyte growth factor receptor kinase (HGFRkd), unphosphorylated | The HGFR autophosphorylation rate is dependent on the concentration of HGFR. | 10.1 mM | 48.1 s^-1M^-1 | –
2 | phosphorylated HGFR (autophosphorylated catalytic domain of the human hepatocyte growth factor receptor kinase) | – | 8.19 mM | 9260 s^-1M^-1 | 0.0285 ± 0.0035 mM
